Assay results: patent publication US20200282021A1 (GENEXINE, published 2020)

Assays:
[1] = target: T1, human GLP-1 receptor (Abcam) (human, UniProt P43220 24-145, limits assumed); experiment: SPR (Proteon XPR36), human GLP-1 receptor immobilised, analyte 0-10 uM, Langmuir fit
T1 construct: Bought recombinant protein
Procedure: (§1) Binding affinity of each TAs were evaluated by SPR (Proteon XPR36, BIO-RAD) and based on the protocol modified from general procedure of SPR analysis in published paper. Specifically, the proteon GLC chip (BIO-RAD, USA) was stabilized with PBST (PBS+0.01% tween 20, pH 7.4). Stabilized GLC chip was activated with 150 uL of Sulfo-NHS (0.001 M) and EDC (0.04M) (1:1) followed by immobilization of 10 ug/mL human GLP-1 receptor (Abcam, UK) diluted in acetate buffer (pH 5.0). After immobilization level was recorded and deactivation by 1 M Ethanolamine-HCl (pH 8.5), different concentrations of Dulaglutide and GLP-1-gFc (0, 1.25, 2.5, 5, 10 uM) were injected to each channel of chip. Chip was regenerated by 25 mM NaOH and checked ‘Zero base’ before repeated analysis of same molecule or other TA. All binding sesorgrams were collected, processed, and analyzed using the integrated Proteon Manager software (Bio-RAD, USA). Binding curves were fitted using the Laugmuir model.

[2] = target: GLP-1 receptor expressed on the transgenic cell line GLP1R_cAMP/luc; experiment: cell-based or functional assay
[3] = target: T1, human GLP-1 receptor (Abcam); experiment: SPR (Proteon XPR36), human GLP-1 receptor immobilised
Procedure: as §1

B1: GLP-1(A2G)-hyFc9 (Fc fusion)
chain: HGEGTFTSDVSSYLEGQAAKEFIAWLVKGRGAKATTAPATTRNTGRGGEEKKKEKEKEEQEERETKTPECPSHTQPLGVFLFPPKPKDTLMISRTPEVTCVVVDVSQEDPEVQFNWYVDGVEVHNAKTKPREEQFNSTYRVVSVLTVLHQDWLNGKEYKCKVSNKGLPSSIEKTISKAKGQPREPQVYTLPPSQEEMTKNQVSLTCLVKGFYPSDIAVEWESNGQPENNYKTTPPVLDSDGSFFLYSRLTVDKSRWQEGNVFSCSVMHEALHNHYTQKSLSLSLGK
modifications: O-glycosylation at the IgD hinge region (positions not stated)
notes: also called GLP-1-gFc; GLP-1-hyFc9
[1]
  Kd: 16 µM
[2]
  EC50, cAMP-dependent luciferase reporter in GLP-1R over-expressing cells: 23.3 pM
  fold difference of EC50 against Dulaglutide, cAMP-dependent luciferase reporter: 3.5 fold
[3]
  fold koff against Dulaglutide: ~10 fold
  fold kon against Dulaglutide: 1.7 fold
